Biological target: the molecule itself
Assay: crystal structure

Protein	stoichiometry N
Cryptosporidium parvum glyceraldehyde 3-phosphate dehydrogenase, wild type (enzyme, glyceraldehyde 3-phosphate dehydrogenase of Cryptosporidium parvum; Homotetramer; Crystallised as apoenzyme and, after incubation with 2 mM NAD, as holoenzyme; also called CpGAPDH; C. parvum GAPDH; source: E. coli, purified (Ni-NTA, SP Sepharose cation exchange, Superdex 200); not shown: His6, N-terminal, kept) MTATLGINGFGRIGRLVLRACMERNDITVVAINDPFMDVEYMAYLLKYDSVHGNFNGTVEVSGKDLCINGKVVKVFQAKDPAEIPWGASGAQIVCESTGVFTTEEKASLHLKGGAKKVIISAPPKDNVPMYVMGVNNTEYDPSKFNVISNASCTTNCLAPLAKIINDKFGIVEGLMTTVHSLTANQLTVDGPSKGGKDWRAGRCAGNNIIPASTGAAKAVGKVIPALNGKLTGMAIRVPTPDVSVVDLTCKLAKPASIEEIYQAVKEASNGPMKGIMGYTSDDVVSTDFIGCKYSSIFDKNACIALNDSFVKLISWYDNESGYSNRLVDLAVYVASRGL	4
Cryptosporidium parvum glyceraldehyde 3-phosphate dehydrogenase, C153S active site mutant (enzyme, also called C153S mutant CpGAPDH; C153S CpGAPDH; source: E. coli, purified (Ni-NTA, SP Sepharose cation exchange, Superdex 200); not shown: His6, N-terminal, kept) MTATLGINGFGRIGRLVLRACMERNDITVVAINDPFMDVEYMAYLLKYDSVHGNFNGTVEVSGKDLCINGKVVKVFQAKDPAEIPWGASGAQIVCESTGVFTTEEKASLHLKGGAKKVIISAPPKDNVPMYVMGVNNTEYDPSKFNVISNASSTTNCLAPLAKIINDKFGIVEGLMTTVHSLTANQLTVDGPSKGGKDWRAGRCAGNNIIPASTGAAKAVGKVIPALNGKLTGMAIRVPTPDVSVVDLTCKLAKPASIEEIYQAVKEASNGPMKGIMGYTSDDVVSTDFIGCKYSSIFDKNACIALNDSFVKLISWYDNESGYSNRLVDLAVYVASRGL	4

Source: publication PMC2662861, “An unexpected phosphate binding site in Glyceraldehyde 3-Phosphate Dehydrogenase: Crystal structures of apo, holo and ternary complex of Cryptosporidium parvum enzyme” (BMC Structural Biology, 2009)
